± gives the uncertainty stated by the source.
test: amyloid nucleation score (Sup35N fusion, yeast selection) (log enrichment); library NNK3; higher = more nucleation; inactive = no reads after selection
How it was run: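 The nucleation score is a DiMSum log enrichment of output over input reads, centred on the mode score of non-aggregating sequences. Sequences under 100 input reads were excluded, and reads came from Illumina sequencing of plasmid inserts. Psi-negative yeast expressing Sup35N fused to peptides of 20 random codons were induced with 100 μM copper sulfate for 24 hours and grown 7 days at 30°C on medium lacking adenine and uracil. Random libraries had three technical output replicates.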

| Substance | amyloid nucleation score |
| --- | --- |
| RLCLFLDPIY | inactive |
| RLCWLNVDHGLLVNPPWGYR | inactive |
| RLFSFAIFHENTMLGNCCTM | 2.44 ± 0.063 |
| RLGFRRIRIIRSSGFSEEWH | 0.224 ± 0.39 |
| RLIQTLWIFIKVRSRALVTH | inactive |
| RLKLNGAQGEFSGVWLDIWA | inactive |
| RLLFMIPIMIVMNQHPTMNV | 1.01 ± 0.17 |
| RLLHSGRS | inactive |
| RLLNVLKRYLMVSLQKAGSD | inactive |
| RLNLNVIL | 2.58 ± 0.087 |
| RLSNVSTMGGMRIPDLLEM | inactive |
| RLSRWRRSNFSE | inactive |
| RLTWESTMYVKIVGMSYAFG | -0.241 ± 0.36 |
| RLVMHSRHTMLLHARGLRSR | inactive |
| RLVNVNDTGVLDVSVITRCS | 0.207 ± 0.6 |
| RLVPFTWGHIPG | inactive |
| RLWTFCFA | inactive |
| RLYAALMFSSVRLCACVALV | inactive |
| RLYLKTDVSDTRHRYMWLSE | inactive |
| RLYVSKEFRSA | inactive |
| RMAYIENGVDTAACSDLYVL | inactive |
| RMCLITTYTRVFLWLHT | inactive |
| RMGHWCRVAGSKLLGVV | -0.131 ± 1.2 |

| Substance | amyloid nucleation score |
| --- | --- |
| RMGWSTGILCRVDTLFITML | inactive |
| RMIASAFFADCEKYVVNNLE | 0.028 ± 0.43 |
| RMILNMCCTITDRKCHSVSD | 2.39 ± 0.055 |
| RMKGFEFCCWDQ | -0.31 ± 0.55 |
| RMLLVEYCMFDFPDSFVRCN | 0.131 ± 0.23 |
| RMLRNF | -0.466 ± 1.9 |
| RMLTHKQIIIRTVWTQYVYI | inactive |
| RMPNSTFGVGWETGFQHSQG | inactive |
| RMRCAAVRAARAVPATKGEG | inactive |
| RMRLRVSVILGA | 0.997 ± 0.11 |
| RNFVEANAYSFRLVTVTLSM | inactive |
| RNGMISQAYSVP | inactive |
| RNGTHCTIDEIYGW | 0.038 ± 0.58 |
| RNISDMEPS | inactive |
| RNKLFLINWLFYNCMTWAFH | inactive |
| RNLSKIRMPMVVNNTEY | inactive |
| RNNVPGVEYVLDYLFMLKVM | inactive |
| RNVQLMVPFTAGVLWVLQCK | inactive |
| RNVWRCSLPYHFIF | inactive |
| RPAIRSFFVMVSVKLR | inactive |
| RPAWTRTSTVDKLQIELRYE | inactive |
| RPDCEYGSS | inactive |
| RPFKFMKLFHIMCVVDVYCM | inactive |

| Substance | amyloid nucleation score |
| --- | --- |
| RPFNHVDISYAKPLDNFWM | -0.582 ± 0.98 |
| RPPMDEICSNFRSRTLNQSK | inactive |
| RQHFRYHGIFAEFGSTFVRS | inactive |
| RQLFWPTPINNFSVVNGILL | inactive |
| RQTCFIMVSCYPVKNGNSEI | 1.48 ± 0.15 |
| RRARKWLVIDVRVPSLWSMR | inactive |
| RRFRSLKRPAQNLSDALMSG | inactive |
| RRNMYLL | -1.31 ± 2.5 |
| RRSCCLVLTIRVFCRICRDE | inactive |
| RRVFHWYKYCV | inactive |
| RRWGFCTLVIVCRAGCYVLS | inactive |
| RRWPTPVCFNEG | inactive |
| RRYHHFRRECWLVERRIVVF | inactive |
| RSCVCTTESPLSMTGLRRVV | inactive |
| RSDMGSHFHAELLKYEMATM | inactive |
| RSEVAGFHLE | -0.807 ± 1.1 |
| RSEVQHKLVSFLSKLIPRAS | inactive |
| RSGLVRSRCSRI | inactive |
| RSLDRRSCAMHILRGHQLKT | inactive |
| RSLWALSPENRPLGKVS | inactive |
| RSLYMLVNLMYCGTEVRFIC | inactive |
| RSNGPLFQVVITYCVSLPLN | inactive |
| RSNTQGLPQYKC | inactive |

| Substance | amyloid nucleation score |
| --- | --- |
| RSRLAGFSNYFCMKCVIAAG | inactive |
| RSSLNDNRYKCNSGSSVYGS | inactive |
| RSTVLIPWVDNTCTDQSSGW | 0.25 ± 0.21 |
| RSTYTSFRARWKRRANGSGW | inactive |
| RSVKSIDSHMAKESF | inactive |
| RSVVLIPDLFGNL | inactive |
| RSYIKGIFCLSAMRFQCSMS | -0.404 ± 0.78 |
| RSYKRYSSSYLIIWGWVNMC | inactive |
| RSYVTILDAFSWIM | -0.239 ± 0.66 |
| RTCSQTIDIGVRNWINEQIM | inactive |
| RTDLWRIGDVANWIYALP | inactive |
| RTEKMGRDTKRYCVPHINFG | inactive |
| RTGTNS | inactive |
| RTIRFRFIGWWLAIAEDCRG | inactive |
| RTKMLAVRDVHSGYHSTTQC | inactive |
| RTNQLREPRANRWEGLAVLK | inactive |
| RTPLYAVLWVEGGLLPYLL | inactive |
| RTTKSNYTVLLDQNIPLSPT | inactive |
| RTWDLDVGVLRLWVLSIG | inactive |
| RTYYASWENDSMGAVSYCAS | inactive |
| RVCFLRINDGR | 0.06 ± 0.49 |
| RVEAPVMPKRRSIHQCSLKK | inactive |
| RVFRLCIRFSHA | 0.391 ± 0.23 |

| Substance | amyloid nucleation score |
| --- | --- |
| RVFSTFILYGETKFFLVPET | 0.677 ± 0.23 |
| RVGCVQYQFRRCRGWKSNKA | inactive |
| RVGSACNRNSLRKESCTPVQ | inactive |
| RVIIRNANSILGTPQSDHNQ | 0.706 ± 0.18 |
| RVIRNQSVRTPP | inactive |
| RVMCRFIVRSLYAPDSHSLT | 1.54 ± 0.073 |
| RVNHGGNLTRAKHERLFHLK | inactive |
| RVNRRWDSLS | inactive |
| RVVSSGRGNSHTAATGWLWQ | inactive |
| RVYGLFTLQYWYLNLYTKGR | 0.548 ± 0.36 |
| RVYLRGRIDFKGTTFGGFEK | 1.63 ± 0.059 |
| RWDFTSDSISRILTPLNVAK | 0.836 ± 0.13 |
| RWDNMFLSWRYCWVYAVSFS | inactive |
| RWFQRWEIKTNAHLLTTLNM | inactive |
| RWFRTVGKFFGHIFS | 0.039 ± 0.45 |
| RWGLYLR | inactive |
| RWKFYILVIYGVSASTFAQG | inactive |
| RWMLSDGFIMKRRTSFFNDM | inactive |
| RWPKIASCFSTHPWSGRYMW | inactive |
| RWWVMLLLVRWKRHQDTAYV | inactive |
| RWYWDHVRIDTYVVHSRTWR | 0.979 ± 0.13 |
| RYCNVFVKIVALCGYKGSWS | 2.64 ± 0.06 |
| RYCVFSLT | inactive |

| Substance | amyloid nucleation score |
| --- | --- |
| RYEFS | inactive |
| RYGSNTSLVANCAGPRPGLV | inactive |
| RYGVWLTCYVRAKLM | inactive |
| RYHNFLYGLGNPMG | inactive |
| RYLGWFLKCTACRDHSEFII | inactive |
| RYLSMELSQEYLFLVVSLVW | inactive |
| RYLVRCSFWVGKNLV | 0.722 ± 0.2 |
| RYPGVFTTQSA | inactive |
| RYPLSDDPLGIVWITYMLAN | inactive |
| RYRPHNPDVVN | inactive |
| RYRTRRALHVYDEFVFEFKP | -0.057 ± 0.68 |
| RYSDHRGIKAVGFAHCFL | inactive |
| RYSVARIRCTTGNVDVYV | -0.281 ± 1.2 |
| RYVAVCSK | inactive |
| SAARSNPW | 0.311 ± 0.31 |
| SAIPVWGKMRGFYLFYETHC | inactive |
| SAIRMPAYDYTWRGLYGDKK | inactive |
| SAKIL | 0.118 ± 0.23 |
| SALLNRLSVSLYWMYGMSFM | inactive |
| SAVRGRCVLYGNRPLIHVRK | inactive |
| SAYFAVY | inactive |
| SAYRKTHHSCYNVLYVFMMC | 1.49 ± 0.082 |
| SAYYYGKY | inactive |

| Substance | amyloid nucleation score |
| --- | --- |
| SCARSGTYIAVGIQSCCPRW | 1.5 ± 0.14 |
| SCCCDFYTTRKNQRCVHRFR | inactive |
| SCCYAPRQPLWYASEFGVVG | inactive |
| SCFAVCHYESRLVYVTYSFL | inactive |
| SCFVCNF | 2.86 ± 0.059 |
| SCGGCLFPDHKCCTSYARWV | inactive |
| SCGLFRLNMDIRVSNKNFWG | 0.991 ± 0.12 |
| SCKVTKHGYVKEDFIGLCSY | inactive |
| SCLCVSW | inactive |
| SCLTDKRSCFC | 0.538 ± 0.34 |
| SCLTIGWLNVVSFWI | 1.97 ± 0.082 |
| SCNFGANYNLKMIFIYVPWV | 1.75 ± 0.08 |
| SCNVVLRFGAMIYTL | inactive |
| SCSDW | inactive |
| SCSGAMTLWFRQPALKHIL | inactive |
| SCSLRYGMTGWPESKTYTAF | inactive |
| SCSMHFLVCEDYNRMLALRC | inactive |
| SCVRHPIECLKWMTLTGEVV | inactive |
| SCWYETMLFSLCKFKYLGLM | inactive |
| SDEKNKNVLGAYRVIMCVVY | inactive |

Source: the supplement of paper PMC12042874
